# Test results: the supplement of paper PMC10065799, “High-throughput profiling of sequence recognition by tyrosine kinases and SH2 domains using bacterial peptide display” (eLife, 2023)
# Legend:
# c-Src SH2 = assay: SH2 binding enrichment of the phosphorylated peptide, bacterial display (enrichment ratio); higher = better substrate or ligand; peptides without Tyr show the background
# Grb2 SH2 = Grb2 SH2 (UniProt P62993); assay: as above
# SHP2-C SH2 = assay: as above
# Hck = Hck (UniProt P08631); assay: phosphorylation enrichment, bacterial display (enrichment ratio); higher = better substrate or ligand; peptides without Tyr show the background
# Chain of Hck (P08631 whole entry, looked up): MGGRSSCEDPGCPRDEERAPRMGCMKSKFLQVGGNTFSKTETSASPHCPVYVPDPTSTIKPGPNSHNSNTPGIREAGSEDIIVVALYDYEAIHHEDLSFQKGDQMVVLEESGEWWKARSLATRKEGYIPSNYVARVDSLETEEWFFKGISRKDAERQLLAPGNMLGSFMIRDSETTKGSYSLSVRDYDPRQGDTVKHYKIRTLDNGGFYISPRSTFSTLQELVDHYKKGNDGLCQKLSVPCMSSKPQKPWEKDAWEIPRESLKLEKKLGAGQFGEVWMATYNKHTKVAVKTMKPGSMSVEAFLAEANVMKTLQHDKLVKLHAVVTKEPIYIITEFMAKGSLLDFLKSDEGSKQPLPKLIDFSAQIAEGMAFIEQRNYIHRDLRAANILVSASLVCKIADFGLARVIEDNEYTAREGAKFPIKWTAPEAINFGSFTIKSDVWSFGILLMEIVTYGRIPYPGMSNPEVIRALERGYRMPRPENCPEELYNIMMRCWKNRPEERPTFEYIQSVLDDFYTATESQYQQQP
# AncSZ = assay: as above
# EPHB2 = EPHB2 (UniProt P29323); assay: as above
# Chain of EPHB2 (P29323 whole entry, looked up): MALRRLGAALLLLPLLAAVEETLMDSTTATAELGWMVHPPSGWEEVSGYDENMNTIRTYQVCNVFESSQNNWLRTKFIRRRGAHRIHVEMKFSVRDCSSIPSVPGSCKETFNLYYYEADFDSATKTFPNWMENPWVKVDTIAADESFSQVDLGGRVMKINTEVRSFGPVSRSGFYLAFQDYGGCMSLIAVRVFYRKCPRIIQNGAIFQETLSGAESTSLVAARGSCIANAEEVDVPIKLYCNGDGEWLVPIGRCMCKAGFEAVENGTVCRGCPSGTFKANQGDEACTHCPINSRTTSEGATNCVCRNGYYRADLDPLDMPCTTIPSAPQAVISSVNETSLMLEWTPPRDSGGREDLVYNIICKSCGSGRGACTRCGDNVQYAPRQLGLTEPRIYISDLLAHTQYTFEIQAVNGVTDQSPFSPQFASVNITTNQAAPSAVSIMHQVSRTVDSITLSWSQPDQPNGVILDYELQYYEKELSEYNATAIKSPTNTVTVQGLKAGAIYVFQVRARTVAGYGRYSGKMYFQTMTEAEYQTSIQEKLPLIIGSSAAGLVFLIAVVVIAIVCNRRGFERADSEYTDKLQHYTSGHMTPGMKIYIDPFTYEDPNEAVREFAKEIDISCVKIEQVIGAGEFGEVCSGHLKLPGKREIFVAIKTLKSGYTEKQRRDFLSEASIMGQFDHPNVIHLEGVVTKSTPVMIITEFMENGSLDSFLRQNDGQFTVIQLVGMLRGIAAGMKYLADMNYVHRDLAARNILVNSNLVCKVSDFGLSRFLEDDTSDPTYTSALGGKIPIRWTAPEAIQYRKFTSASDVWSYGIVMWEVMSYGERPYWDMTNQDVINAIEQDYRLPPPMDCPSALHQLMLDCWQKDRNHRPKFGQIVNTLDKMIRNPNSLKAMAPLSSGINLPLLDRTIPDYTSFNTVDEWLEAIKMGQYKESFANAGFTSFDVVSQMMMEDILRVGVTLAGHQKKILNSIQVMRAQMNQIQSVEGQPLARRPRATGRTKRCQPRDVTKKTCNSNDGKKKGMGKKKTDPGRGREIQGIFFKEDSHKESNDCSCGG
# c-Abl (mouse) = assay: as above
# Fes = Fes (UniProt P07332); assay: as above
# Fer (mouse) = assay: as above
# Fyn = Fyn (UniProt P06241); assay: as above
# Chain of Fyn (P06241 whole entry, looked up): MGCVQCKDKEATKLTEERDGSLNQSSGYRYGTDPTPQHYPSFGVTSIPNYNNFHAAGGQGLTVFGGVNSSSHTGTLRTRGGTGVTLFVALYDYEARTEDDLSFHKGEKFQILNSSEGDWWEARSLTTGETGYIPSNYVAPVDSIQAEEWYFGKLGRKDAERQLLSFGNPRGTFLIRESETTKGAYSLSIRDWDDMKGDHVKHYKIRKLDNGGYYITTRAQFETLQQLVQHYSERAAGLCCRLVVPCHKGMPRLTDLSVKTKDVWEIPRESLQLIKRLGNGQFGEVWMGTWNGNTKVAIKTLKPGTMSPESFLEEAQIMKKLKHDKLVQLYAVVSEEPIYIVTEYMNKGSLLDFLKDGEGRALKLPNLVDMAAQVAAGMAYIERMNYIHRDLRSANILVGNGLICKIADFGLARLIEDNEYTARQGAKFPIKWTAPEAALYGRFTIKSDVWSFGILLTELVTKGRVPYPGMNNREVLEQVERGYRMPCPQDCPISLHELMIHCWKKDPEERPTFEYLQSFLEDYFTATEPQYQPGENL
# EPHB1 = EPHB1 (UniProt P54762); assay: as above
# Chain of EPHB1 (P54762 whole entry, looked up): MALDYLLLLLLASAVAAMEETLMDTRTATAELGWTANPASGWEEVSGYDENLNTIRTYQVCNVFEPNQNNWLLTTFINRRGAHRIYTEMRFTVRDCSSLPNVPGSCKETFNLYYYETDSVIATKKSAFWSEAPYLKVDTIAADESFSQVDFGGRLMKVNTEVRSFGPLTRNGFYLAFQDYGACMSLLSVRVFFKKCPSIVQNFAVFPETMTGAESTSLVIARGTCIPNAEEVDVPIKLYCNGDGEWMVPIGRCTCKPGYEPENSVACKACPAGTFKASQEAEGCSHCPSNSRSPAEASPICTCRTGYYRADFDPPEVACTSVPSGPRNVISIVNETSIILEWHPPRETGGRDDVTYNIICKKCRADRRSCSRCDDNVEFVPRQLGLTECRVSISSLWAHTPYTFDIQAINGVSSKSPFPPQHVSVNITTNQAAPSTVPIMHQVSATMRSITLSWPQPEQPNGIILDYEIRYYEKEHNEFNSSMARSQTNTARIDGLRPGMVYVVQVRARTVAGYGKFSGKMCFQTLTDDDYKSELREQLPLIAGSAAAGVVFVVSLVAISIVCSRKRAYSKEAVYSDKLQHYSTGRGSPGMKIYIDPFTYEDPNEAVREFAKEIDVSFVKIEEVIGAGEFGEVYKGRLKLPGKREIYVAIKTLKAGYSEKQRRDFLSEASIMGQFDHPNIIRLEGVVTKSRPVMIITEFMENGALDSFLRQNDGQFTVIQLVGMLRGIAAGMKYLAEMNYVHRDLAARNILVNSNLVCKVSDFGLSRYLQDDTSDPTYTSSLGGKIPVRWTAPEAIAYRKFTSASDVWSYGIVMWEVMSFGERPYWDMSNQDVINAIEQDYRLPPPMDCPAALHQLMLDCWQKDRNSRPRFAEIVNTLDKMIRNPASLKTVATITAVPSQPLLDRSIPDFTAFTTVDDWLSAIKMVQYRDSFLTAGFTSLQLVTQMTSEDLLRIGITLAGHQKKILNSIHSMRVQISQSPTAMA
# Jak2 = Jak2 (UniProt O60674); assay: as above
# MERTK = MERTK (UniProt Q12866); assay: as above
# Chain of MERTK (Q12866 whole entry, looked up): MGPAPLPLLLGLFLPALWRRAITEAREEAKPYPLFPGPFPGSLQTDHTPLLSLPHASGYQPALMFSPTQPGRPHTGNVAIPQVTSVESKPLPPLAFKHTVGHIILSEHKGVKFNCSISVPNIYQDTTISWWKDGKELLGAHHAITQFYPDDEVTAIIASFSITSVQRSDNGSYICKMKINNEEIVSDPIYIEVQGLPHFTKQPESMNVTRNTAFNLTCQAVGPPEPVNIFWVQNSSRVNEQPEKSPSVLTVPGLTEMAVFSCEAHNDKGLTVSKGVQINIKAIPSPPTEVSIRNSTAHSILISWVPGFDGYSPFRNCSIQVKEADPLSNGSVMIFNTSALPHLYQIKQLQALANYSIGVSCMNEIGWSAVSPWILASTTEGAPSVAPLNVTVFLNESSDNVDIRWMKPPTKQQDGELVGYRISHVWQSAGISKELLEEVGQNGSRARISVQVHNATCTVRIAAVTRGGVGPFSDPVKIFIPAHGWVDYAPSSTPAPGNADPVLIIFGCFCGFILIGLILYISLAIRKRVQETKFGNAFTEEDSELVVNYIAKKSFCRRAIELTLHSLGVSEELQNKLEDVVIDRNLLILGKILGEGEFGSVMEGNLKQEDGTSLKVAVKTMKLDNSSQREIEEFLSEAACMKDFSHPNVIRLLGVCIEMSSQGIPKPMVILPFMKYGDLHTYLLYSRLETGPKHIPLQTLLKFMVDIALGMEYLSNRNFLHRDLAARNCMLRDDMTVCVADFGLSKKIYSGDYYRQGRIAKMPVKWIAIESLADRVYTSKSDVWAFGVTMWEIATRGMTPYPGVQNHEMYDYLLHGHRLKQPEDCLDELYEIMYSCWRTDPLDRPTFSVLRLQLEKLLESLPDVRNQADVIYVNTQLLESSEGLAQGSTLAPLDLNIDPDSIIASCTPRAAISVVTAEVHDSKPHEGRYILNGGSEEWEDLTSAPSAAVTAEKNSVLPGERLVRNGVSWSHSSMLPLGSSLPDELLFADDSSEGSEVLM
# FGFR3 = FGFR3 (UniProt P22607); assay: as above
# Chain of FGFR3 (P22607 whole entry, looked up): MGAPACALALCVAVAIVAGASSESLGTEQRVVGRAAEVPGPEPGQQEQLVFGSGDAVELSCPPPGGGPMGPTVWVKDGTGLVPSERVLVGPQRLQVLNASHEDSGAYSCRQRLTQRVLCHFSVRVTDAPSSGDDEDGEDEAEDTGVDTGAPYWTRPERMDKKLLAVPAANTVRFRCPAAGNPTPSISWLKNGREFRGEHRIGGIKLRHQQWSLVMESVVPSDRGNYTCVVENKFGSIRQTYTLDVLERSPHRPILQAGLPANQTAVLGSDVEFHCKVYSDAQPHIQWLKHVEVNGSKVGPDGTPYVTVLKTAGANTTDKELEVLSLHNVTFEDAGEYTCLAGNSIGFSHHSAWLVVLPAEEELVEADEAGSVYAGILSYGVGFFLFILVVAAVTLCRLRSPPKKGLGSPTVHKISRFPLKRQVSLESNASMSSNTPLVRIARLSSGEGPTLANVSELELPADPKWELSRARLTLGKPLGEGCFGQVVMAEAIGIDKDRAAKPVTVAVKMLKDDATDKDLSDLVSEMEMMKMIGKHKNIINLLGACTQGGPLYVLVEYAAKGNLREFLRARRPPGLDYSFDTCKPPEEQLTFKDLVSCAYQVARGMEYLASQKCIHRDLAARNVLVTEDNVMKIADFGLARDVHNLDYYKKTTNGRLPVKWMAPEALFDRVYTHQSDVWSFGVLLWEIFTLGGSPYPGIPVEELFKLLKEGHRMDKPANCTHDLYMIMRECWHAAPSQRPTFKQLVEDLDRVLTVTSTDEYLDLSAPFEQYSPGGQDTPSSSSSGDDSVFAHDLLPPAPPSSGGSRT
# FGFR1 = FGFR1 (UniProt P11362); assay: as above
# c-Src = assay: as above
# 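Wherever SH2 binding enrichment of the phosphorylated peptide, bacterial display is given: peptide library displayed on the E. coli surface as eCPX fusions, selected cells deep-sequenced, score is each peptide's frequency after selection divided by its frequency in the input.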
# 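Wherever phosphorylation enrichment, bacterial display is given: 11-residue human phosphosite peptides and single-mutation variants displayed on the E. coli surface, counted by deep sequencing, each peptide's frequency after selection divided by its frequency in the unselected input library; frequency after pTyr selection over input frequency; kinase dosed for 20-30% of maximal phosphorylation in three min.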
Sequence,SH2 binding enrichment (c-Src SH2),SH2 binding enrichment (Grb2 SH2),SH2 binding enrichment (SHP2-C SH2),phosphorylation enrichment (Hck),phosphorylation enrichment (AncSZ),phosphorylation enrichment (EPHB2),phosphorylation enrichment (c-Abl (mouse)),phosphorylation enrichment (Fes),phosphorylation enrichment (Fer (mouse)),phosphorylation enrichment (Fyn),phosphorylation enrichment (EPHB1),phosphorylation enrichment (Jak2),phosphorylation enrichment (MERTK),phosphorylation enrichment (FGFR3),phosphorylation enrichment (FGFR1),phosphorylation enrichment (c-Src)
SNKLTYGTVVF [ACOX1_Y275_M278V],0.597,0.92,4.29,3.09,0.777,0.725,0.613,0.845,1.01,8,0.524,0.685,0.416,0.617,0.466,5.78
LSIQCYLRASD [HMGCS2_Y262_L266S],0.443,0.732,0.795,2.46,3.81,3.31,1.87,4.92,2.44,2.73,3.37,2.95,1.2,5.23,1.99,0.998
TRSYKCLLLSM [NF1_Y491_Y491C],0.815,1.09,0.872,0.441,0.979,0.487,0.637,0.94,0.402,0.425,0.486,0.784,0.434,0.619,0.375,0.401
AHLLQYNHQVK [LGALS3_Y221_R224Q],0.503,0.631,0.401,0.508,0.706,0.505,0.474,0.9,0.583,0.706,0.503,0.517,0.521,0.545,0.579,0.459
ALEKTYNTFRS [B4GALNT2_Y538_YF],0.457,0.872,0.591,0.704,0.573,0.406,0.503,0.509,0.422,0.777,0.351,0.73,0.382,0.456,0.433,1.78
SLHPGYNFRYA [P2RX7_Y291_Y288H],0.556,1.09,1.93,0.492,0.657,0.497,0.637,0.949,0.442,0.424,0.351,0.925,0.622,0.545,0.431,0.454
DKATEYSQFMR [MAX_Y70_I71S_YF],0.512,0.824,0.688,0.631,0.84,0.541,0.519,0.683,0.392,0.733,0.39,0.524,0.423,0.397,0.449,0.873
ALRHYYKLNII [ETV6_Y402],1.35,1.54,1.42,0.527,0.968,0.533,0.839,1.28,0.693,0.506,0.579,1.3,0.522,1.36,1.3,0.427
LGPSDYFGETA [PRKAR1A_Y323_I327T],0.59,0.817,0.499,0.509,0.964,0.425,0.448,0.808,0.422,0.518,0.597,0.749,0.398,0.636,0.585,0.55
PIGRKYKKVRF [F8_Y442_R437P],0.568,0.653,0.648,0.553,0.828,0.597,0.661,0.54,0.459,0.763,0.557,0.545,0.498,0.368,0.577,0.587
AAFNKYDQERF [CDC73_Y293_R292K_YF],0.44,0.867,0.776,0.375,0.692,0.483,0.494,0.785,0.428,0.485,0.401,0.599,0.396,0.531,0.412,0.414
FLGKGYSDGGC [MC4R_Y35_S30F],0.509,1.1,0.832,0.579,0.876,0.567,0.818,1.14,0.542,0.548,0.503,0.95,0.552,0.623,0.672,0.592
QISQDYGVLLE [PRDX3_Y172_R170Q],0.516,0.52,0.482,0.743,1.37,1.21,1.18,1.69,0.673,0.828,0.876,1.32,0.603,0.792,0.851,0.981
PANTVYSTVEI [SLAMF7_Y304],1.26,0.925,5.85,9.13,1.59,1.83,6.76,2.16,23.3,10.2,2.2,1.47,7.46,1.29,1.43,7.87
KHASTYREAAT [DEAF1_Y483],0.625,0.874,0.755,0.344,0.425,0.324,0.52,0.518,0.363,0.322,0.328,0.356,0.359,0.39,0.339,0.307
YVPSFYHAFSG [ACTN4_Y265_S262P],0.997,1.2,0.673,1.94,0.81,1.03,1.06,0.99,0.407,1.82,2.09,0.794,7.65,1.17,1.32,2.17
LEHCQYVTQKV [ALDOB_Y204_E207Q],0.731,0.957,1.18,0.507,1.01,0.924,0.727,1.04,0.648,0.47,0.818,1.03,0.401,0.763,0.656,0.617
